Results on one molecule are retold here after paper PMC6954417, “DSS1 interacts with and stimulates RAD52 to promote the repair of DSBs”.

Data set [1] deals with RAD52 (untagged, pET11a);DSS1 (Homo sapiens;Homo sapiens, UniProt P43351;P60896 1-418;1-70, |). As to the kind of experiment: stopped-flow fluorescence; 1:1 complex; sign change at 0.1-0.25 uM; ssDNA EMSA: 30 mM Tris-acetate pH 7.5, 1 mM DTT, RT, 0.1% glutaraldehyde; FRET: same buffer + 0.1 mg/ml BSA, 25 C; dsDNA EMSA: 30 mM KPi pH 7.4, 1 mM DTT, 0.01. As to conditions: protein: recombinant;recombinant; tags: none;GST removed by thrombin; label: Cy3; single strand. A general note: Mobility shift assays separate free from complexed probe on a gel.
RAD52 (untagged, pET11a);DSS1, sequence (P60896 whole entry, one chain of several): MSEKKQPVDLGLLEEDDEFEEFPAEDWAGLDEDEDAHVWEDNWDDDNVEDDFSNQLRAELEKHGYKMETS

Data set [2] concerns the target T1, RAD52 (untagged, pET11a) (Homo sapiens, UniProt P43351 1-418).
T1 sequence: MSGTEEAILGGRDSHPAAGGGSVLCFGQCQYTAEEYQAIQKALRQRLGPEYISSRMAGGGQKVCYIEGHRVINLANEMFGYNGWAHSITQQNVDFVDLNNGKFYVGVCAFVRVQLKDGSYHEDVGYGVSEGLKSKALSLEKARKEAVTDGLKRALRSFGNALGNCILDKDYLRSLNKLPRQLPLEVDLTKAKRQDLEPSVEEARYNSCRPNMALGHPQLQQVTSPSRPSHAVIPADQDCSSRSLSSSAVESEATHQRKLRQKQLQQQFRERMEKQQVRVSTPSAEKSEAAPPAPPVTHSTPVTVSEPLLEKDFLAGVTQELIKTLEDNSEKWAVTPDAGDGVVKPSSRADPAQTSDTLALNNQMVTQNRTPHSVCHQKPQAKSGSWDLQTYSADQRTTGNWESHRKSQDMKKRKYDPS
The experiment in a line: stopped-flow fluorescence; 0.05-2.0 uM RAD52; smaller amplitude, lower affinity than with DSS1; sign change at ~0.5 uM; ssDNA EMSA: 30 mM Tris-acetate pH 7.5, 1 mM DTT, RT, 0.1% glutaraldehyde; FRET: same buffer + 0.1 mg/ml BSA, 25 C; dsDNA EMSA: 30 mM KPi pH 7.4, 1 mM DTT, 0.01. The conditions noted are these: protein: recombinant; tags: none; label: Cy3; single strand.

Regarding TTTTTTTTTTTTTTTTTTTTTTTTTTTTTTTTT (ssDNA) [Cy3-dT33 (pR1255)], the binding result in data set [1] and in data set [2] was “binds” throughout.
